# Where two headings read alike, the source gives them in different places.
# T1: recombinant human Trop-2-his protein (ACCESSION NO.: NP_002344.2, AA 1-274) (human, UniProt P09758 27-274)
# T1 construct: range 27-274; also called recombinant human Trop-2 protein; recombinant human Trop-2 extracellular domain; not shown: his tag
# T1 sequence (looked up): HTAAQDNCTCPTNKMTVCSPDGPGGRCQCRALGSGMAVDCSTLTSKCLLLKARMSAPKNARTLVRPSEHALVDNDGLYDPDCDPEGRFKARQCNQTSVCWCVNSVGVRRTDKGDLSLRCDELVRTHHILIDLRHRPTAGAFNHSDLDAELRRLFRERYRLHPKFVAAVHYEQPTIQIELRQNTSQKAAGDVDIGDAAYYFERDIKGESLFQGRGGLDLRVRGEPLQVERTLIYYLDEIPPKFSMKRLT
# Legend:
# [1] = molecular target: T1, recombinant human Trop-2-his protein …; assay: BLI, antibody on AHC sensor, Trop-2-his 60 nM
# Description: (§1) 5-6 days after cell transfection, culture supernatants were purified through ProA affinity chromatography column to obtain different humanized antibodies. Affinities of the obtained antibodies were determined by an assay including capturing Fc fragments of the antibodies with anti-human IgG Fc capture (AHC) biosensors using Octet QKe system instrument from Fortebio. For the assay, each of the humanized antibodies and control antibody Sacituzumab was diluted to 4 μg/ml in PBS, and was allowed to flow through the surface of an AHC biosensor (Cat.: 18-0015, PALL) for 120 s. Recombinant human Trop-2-his protein (ACCESSION NO.: NP_002344.2, AA 1-274) was used as a mobile phase, and its concentration was 60 nM. The binding time was 100 s and the dissociation time was 300 s. When the assay was finished, data from which the response values of blank control had been deducted were fitted to a 1:1 Langmuir binding model using software, and then kinetic constants for antigen-antibody binding were calculated.
# Affinities of the antibodies obtained from the combinations of mutants of murine antibody 23-12, chimeric antibody ch23-12 and control antibody Sacituzumab to recombinant human Trop-2-his protein were determined by ForteBijo (Table 5).
# [2] = molecular target: T1, recombinant human Trop-2-his protein …; assay: BLI, antibody on AHC sensor, Trop-2-his 60 nM; remark: listed apart in the source
# Description: as §1
# Affinities of the antibodies obtained from the combinations of mutants of murine antibody 23-12, chimeric antibody ch4-3 and control antibody Sacituzumab to recombinant human Trop-2-his protein were determined by ForteBio (Table 8).
Binder,Kd [1],Kd [2]
"h23-12-46 (antibody, human IgG1, kappa, V domains shown) VH: QVQLVQSGAEVKKPGASVKVSCKASGYTFTSYWMHWVRQAPGQGLEWMGEITPSDNYGSYNQKFKGRVTITRDTSTSTAYMELSSLRSEDTAVYYCARGHGNYVSFDYWGQGTLVTVSS VL: DIQMTQSPSSLSASVGDRVTITCRASQDISNYLNWYQQKPGKAPKLLIYYTSRLHSGVPSRFSGSGSGTDFTLTISSLQPEDFATYFCQQGYSLPPYTFGQGTKLEIKR",0.312 nM,
"h23-12-48 (antibody, human IgG1, kappa, V domains shown) VH: QVQLVQSGAEVKKPGASVKVSCKASGYTFTSYWMHWVRQAPGQGLEWMGEITPSDNYTSYNQKFKGRVTITRDTSTSTAYMELSSLRSEDTAVYYCARGEGNYVSFDYWGQGTLVTVSS VL: DIQMTQSPSSLSASVGDRVTITCRASQDISNYLNWYQQKPGKAPKLLIYYTSRLHSGVPSRFSGSGSGTDFTLTISSLQPEDFATYFCQQGYSLPPYTFGQGTKLEIKR",0.405 nM,
"h4-3-5 (antibody, human IgG1, kappa, V domains shown) VH: EVQLVQSGPEVKKPGASVKVSCKASGFTFTDYVIGWVRQAPGQGLEWIGEIYLGSGTIYYTEKFKGRVTMTADTSTSTAYMELSSLRSEDTAVYYCARGSIFPFDYWGQGTLVTVSS VL: DIQLTQSPSSLSASVGDRVTITCRASSSVSYMYWYQQKPGKAPKLLIYDTSTLASGVPSRFSGSGSGTDFTLTISSLQPEDFATYYCQQWSSYPYTFGQGTKLEIKR",,0.273 nM
"h4-3-3 (antibody, human IgG1, kappa, V domains shown) VH: EVQLVQSGPEVKKPGASVKVSCKASGFTFTDYVIGWVRQAPGQGLEWIGEIYLGSGTIYYTQKFKGRVTMTADTSTSTAYMELSSLRSEDTAVYYCARGSIFPFDYWGQGTLVTVSS VL: DIQLTQSPSSLSASVGDRVTITCSASSSVSYMYWYQQKPGKAPKLLIYDTSTLASGVPSRFSGSGSGTDFTLTISSLQPEDFATYYCQQWSSYPYTFGQGTKLEIKR",,0.501 nM
"h4-3-7 (antibody, human IgG1, kappa, V domains shown) VH: EVQLVQSGPEVKKPGASVKVSCKASGFTFTDYVIGWVRQAPGQGLEWIGEIYLGSGTIYYTQKFKGRVTMTADTSTSTAYMELSSLRSEDTAVYYCARGSIFPFDYWGQGTLVTVSS VL: DIQLTQSPSSLSASVGDRVTITCRASSSVSYMYWYQQKPGKAPKLLIYDTSTLASGVPSRFSGSGSGTDFTLTISSLQPEDFATYYCQQWSSYPYTFGQGTKLEIKR",,0.466 nM
"h4-3-8 (antibody, human IgG1, kappa, V domains shown) VH: EVQLVQSGPEVKKPGASVKVSCKASGFTFTDYVIGWVRQAPGQGLEWIGEIYLGSGTIYYTEKFKGRVTMTADTSTSTAYMELSSLRSEDTAVYYCARGSIFYFDYWGQGTLVTVSS VL: DIQLTQSPSSLSASVGDRVTITCRASSSVSYMYWYQQKPGKAPKLLIYDTSTLASGVPSRFSGSGSGTDFTLTISSLQPEDFATYYCQQWSSYPYTFGQGTKLEIKR",,0.862 nM
"h4-3-12 (antibody, human IgG1, kappa, V domains shown) VH: EVQLVQSGPEVKKPGASVKVSCKASGFTFTDYVIGWVRQAPGQGLEWIGEIYLGSGTIYYTEKFKGRVTMTADTSTSTAYMELSSLRSEDTAVYYCARGSIFYFDYWGQGTLVTVSS VL: DIQLTQSPSSLSASVGDRVTITCSASSSVSYMYWYQQKPGKAPKLLIYDASTLASGVPSRFSGSGSGTDFTLTISSLQPEDFATYYCQQWSSYPYTFGQGTKLEIKR",,1.03 nM
"h4-3-15 (antibody, human IgG1, kappa, V domains shown) VH: EVQLVQSGPEVKKPGASVKVSCKASGFTFTDYVIGWVRQAPGQGLEWIGEIYLGSGTIYYTQKFKGRVTMTADTSTSTAYMELSSLRSEDTAVYYCARGSIFPFDYWGQGTLVTVSS VL: DIQLTQSPSSLSASVGDRVTITCSASSSVSYMYWYQQKPGKAPKLLIYDTSTLQSGVPSRFSGSGSGTDFTLTISSLQPEDFATYYCQQWSSYPYTFGQGTKLEIKR",,0.687 nM
"h4-3-13 (antibody, human IgG1, kappa, V domains shown) VH: EVQLVQSGPEVKKPGASVKVSCKASGFTFTDYVIGWVRQAPGQGLEWIGEIYLGSGTIYYTEKFKGRVTMTADTSTSTAYMELSSLRSEDTAVYYCARGSIFPFDYWGQGTLVTVSS VL: DIQLTQSPSSLSASVGDRVTITCSASSSVSYMYWYQQKPGKAPKLLIYDTSTLQSGVPSRFSGSGSGTDFTLTISSLQPEDFATYYCQQWSSYPYTFGQGTKLEIKR",,0.281 nM
"h4-3-11 (antibody, human IgG1, kappa, V domains shown) VH: EVQLVQSGPEVKKPGASVKVSCKASGFTFTDYVIGWVRQAPGQGLEWIGEIYLGSGTIYYTQKFKGRVTMTADTSTSTAYMELSSLRSEDTAVYYCARGSIFPFDYWGQGTLVTVSS VL: DIQLTQSPSSLSASVGDRVTITCSASSSVSYMYWYQQKPGKAPKLLIYDASTLASGVPSRFSGSGSGTDFTLTISSLQPEDFATYYCQQWSSYPYTFGQGTKLEIKR",,0.802 nM
"h4-3-6 (antibody, human IgG1, kappa, V domains shown) VH: EVQLVQSGPEVKKPGASVKVSCKASGFTFTDYVIGWVRQAPGQGLEWIGEIYLGSGTIYYAEKFKGRVTMTADTSTSTAYMELSSLRSEDTAVYYCARGSIFPFDYWGQGTLVTVSS VL: DIQLTQSPSSLSASVGDRVTITCRASSSVSYMYWYQQKPGKAPKLLIYDTSTLASGVPSRFSGSGSGTDFTLTISSLQPEDFATYYCQQWSSYPYTFGQGTKLEIKR",,0.397 nM

# Results, then the binder that gave them:
Kd [1],Kd [2],Binder
4.09 nM,,"h23-12-45 (antibody, human IgG1, kappa, V domains shown) VH: QVQLVQSGAEVKKPGASVKVSCKASGYTFTSYWMHWVRQAPGQGLEWMGEITPSDGYTSYNQKFKGRVTITRDTSTSTAYMELSSLRSEDTAVYYCARGHGNYVSFDYWGQGTLVTVSS VL: DIQMTQSPSSLSASVGDRVTITCRASQDISNYLNWYQQKPGKAPKLLIYYTSRLHSGVPSRFSGSGSGTDFTLTISSLQPEDFATYFCQQGYSLPPYTFGQGTKLEIKR"
2.99 nM,,"h23-12-49 (antibody, human IgG1, kappa, V domains shown) VH: QVQLVQSGAEVKKPGASVKVSCKASGYTFTSYWMHWVRQAPGQGLEWMGEITPSDNYTSYNQKFKGRVTITRDTSTSTAYMELSSLRSEDTAVYYCARGQGNYVSFDYWGQGTLVTVSS VL: DIQMTQSPSSLSASVGDRVTITCRASQDISNYLNWYQQKPGKAPKLLIYYTSRLHSGVPSRFSGSGSGTDFTLTISSLQPEDFATYFCQQGYSLPPYTFGQGTKLEIKR"
2.31 nM,,"h23-12-47 (antibody, human IgG1, kappa, V domains shown) VH: QVQLVQSGAEVKKPGASVKVSCKASGYTFTSYWMHWVRQAPGQGLEWMGEITPSDNYTSYAQKFKGRVTITRDTSTSTAYMELSSLRSEDTAVYYCARGHGNYVSFDYWGQGTLVTVSS VL: DIQMTQSPSSLSASVGDRVTITCRASQDISNYLNWYQQKPGKAPKLLIYYTSRLHSGVPSRFSGSGSGTDFTLTISSLQPEDFATYFCQQGYSLPPYTFGQGTKLEIKR"
,0.411 nM,"h4-3-2 (antibody, human IgG1, kappa, V domains shown) VH: EVQLVQSGPEVKKPGASVKVSCKASGFTFTDYVIGWVRQAPGQGLEWIGEIYLGSGTIYYAEKFKGRVTMTADTSTSTAYMELSSLRSEDTAVYYCARGSIFPFDYWGQGTLVTVSS VL: DIQLTQSPSSLSASVGDRVTITCSASSSVSYMYWYQQKPGKAPKLLIYDTSTLASGVPSRFSGSGSGTDFTLTISSLQPEDFATYYCQQWSSYPYTFGQGTKLEIKR"
,0.317 nM,"h4-3-9 (antibody, human IgG1, kappa, V domains shown) VH: EVQLVQSGPEVKKPGASVKVSCKASGFTFTDYVIGWVRQAPGQGLEWIGEIYLGSGTIYYTEKFKGRVTMTADTSTSTAYMELSSLRSEDTAVYYCARGSIFPFDYWGQGTLVTVSS VL: DIQLTQSPSSLSASVGDRVTITCSASSSVSYMYWYQQKPGKAPKLLIYDASTLASGVPSRFSGSGSGTDFTLTISSLQPEDFATYYCQQWSSYPYTFGQGTKLEIKR"
,0.571 nM,"h4-3-14 (antibody, human IgG1, kappa, V domains shown) VH: EVQLVQSGPEVKKPGASVKVSCKASGFTFTDYVIGWVRQAPGQGLEWIGEIYLGSGTIYYAEKFKGRVTMTADTSTSTAYMELSSLRSEDTAVYYCARGSIFPFDYWGQGTLVTVSS VL: DIQLTQSPSSLSASVGDRVTITCSASSSVSYMYWYQQKPGKAPKLLIYDTSTLQSGVPSRFSGSGSGTDFTLTISSLQPEDFATYYCQQWSSYPYTFGQGTKLEIKR"
,0.763 nM,"h4-3-10 (antibody, human IgG1, kappa, V domains shown) VH: EVQLVQSGPEVKKPGASVKVSCKASGFTFTDYVIGWVRQAPGQGLEWIGEIYLGSGTIYYAEKFKGRVTMTADTSTSTAYMELSSLRSEDTAVYYCARGSIFPFDYWGQGTLVTVSS VL: DIQLTQSPSSLSASVGDRVTITCSASSSVSYMYWYQQKPGKAPKLLIYDASTLASGVPSRFSGSGSGTDFTLTISSLQPEDFATYYCQQWSSYPYTFGQGTKLEIKR"
,0.636 nM,"h4-3-4 (antibody, human IgG1, kappa, V domains shown) VH: EVQLVQSGPEVKKPGASVKVSCKASGFTFTDYVIGWVRQAPGQGLEWIGEIYLGSGTIYYTEKFKGRVTMTADTSTSTAYMELSSLRSEDTAVYYCARGSIFYFDYWGQGTLVTVSS VL: DIQLTQSPSSLSASVGDRVTITCSASSSVSYMYWYQQKPGKAPKLLIYDTSTLASGVPSRFSGSGSGTDFTLTISSLQPEDFATYYCQQWSSYPYTFGQGTKLEIKR"
